The values that follow come from patent US6638941B1, “Conformationallly constrained peptidomimetics as β-turn templates and modulators of SH3 domains” (OSI Pharmaceuticals, Inc., priority 1997, dated 2003).

One experiment deals with T1, Lyn SH3 domain (Homo sapiens, UniProt P07948).
T1 construct: Lyn SH3-GST fusion proteins were generated as previously described; made in house
In words: Inhibition of Lyn SH3-GST fusion protein binding to immobilized p85 proline-rich peptide, surface plasmon resonance (BIAcore). Particulars: Lyn SH3-GST fusion protein (1 μM) incubated with 0.01-100 μM spirolactam or non-biotinylated canonical peptide prior to injection; 25° C.; concentration behind the values not stated. The method, then: The ability of spirolactams to bind to SH3 domains was assessed by measuring their ability to inhibit the binding of cononical proline-rich peptide to purified Lyn SH3 domain. This inhibition was measured by surface plasmon resonance.
Lyn SH3-GST fusion proteins were generated as previously described (Pleiman, et al., Mol & Cellular Biol. 13(9):5877 (1993)), purified from bacterial lysates by glutathione affinity chromatography and eluted by competition. Aggregates were removed by size exclusion chromatography on Sephadex 75 (Pharmacia Biotech, Uppsala, Sweden).
Surface plasmon resonance measurements were performed on a BIAcore 2000 biosensor (BIAcore AB, Uppsala, Sweden). A synthetic canonical proline-rich peptide derived from phosphatidylinositol 3 kinase p85 (Pleiman, et al., (1994) Science 263:1609 (1994)); GGGKPRPPRPLPVAPGSS (SEQ ID NO:5) was immobilized on a prepared streptavidin coated sensor chip (Sensor Chip SA, BIAcore AB) via an N-terminal biotin moiety at a density of 0.05 pmol/mm^2. […] Dissociation was monitored during subsequent washing of the chip with running buffer for an additional 5.0 minutes. […]
To test their activity, 0.01-100 μM spirolactam or non-biotinylated canonical peptide was incubated with the fusion protein prior to injection. Data were recorded in real-time as sensorgrams and analyzed subsequently using BIA evaluation 2.0 software (BIAcore AB).
In general terms: Surface plasmon resonance follows binding to a sensor surface in real time, without labels.

Experiment [1] has as its target Lyn SH3-GST fusion protein. In words: SPR competition, compound (0.01-100 uM) incubated with Lyn SH3-GST before injection over immobilized biotinylated p85 peptide.

T1 sequence (P07948 63-123 limits assumed): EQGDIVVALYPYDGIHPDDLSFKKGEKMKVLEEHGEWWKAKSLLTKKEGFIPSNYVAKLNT

For the molecule “Ac-GGGKPRPPRPLPVAPGSS-OH [Ac-GGGKPRPPRPLPVAP-GSS-OH, non-biotinylated canonical proline-rich peptide derived from phosphatidylinositol 3 kinase p85, reference compound]”, the “Percent Binding (Relative binding affinity to SH3 domain)” value with Lyn SH3 domain is 81%.

In turn, Ac-GGGKPRPPRPLPVAPGSS-OH [Ac-…-OH] showed a Percent Binding in experiment [1] of 81%.
